From paper PMC10359629, “Thumb-domain dynamics modulate the functional repertoire of DNA-Polymerase IV (DinB)”

Key:
DinBΔPAD = biological target: T1, DinBΔPAD (Escherichia coli, UniProt Q47155 1-230); assay: NMR titration; BLI: 50 mM KPi pH 6.5, 50 mM NaCl, 10 mM MgSO4, 1 mM TCEP, 303 K; NMR titrations: NMR buffer (composition in Supplementary Table S2, not fully given), 298 K; settings: protein: recombinant; tags: N-terminal His6 (stop codon at 231; tag inferred from parent plasmid); blunt; each strand also partly self-complementary (called self-complementary in text)
T1 sequence: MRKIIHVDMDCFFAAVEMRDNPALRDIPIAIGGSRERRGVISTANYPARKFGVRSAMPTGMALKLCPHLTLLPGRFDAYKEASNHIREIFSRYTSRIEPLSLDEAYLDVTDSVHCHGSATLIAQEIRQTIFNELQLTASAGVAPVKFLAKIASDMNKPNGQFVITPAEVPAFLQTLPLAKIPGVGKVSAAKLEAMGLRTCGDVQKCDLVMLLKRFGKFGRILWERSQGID

DinB (DNA polymerase IV) = biological target: T2, DinB (DNA polymerase IV) (Escherichia coli, UniProt Q47155 1-351); assay: as above; settings: protein: recombinant; tags: N-terminal His6; blunt; each strand also partly self-complementary (called self-complementary in text)
T2 sequence: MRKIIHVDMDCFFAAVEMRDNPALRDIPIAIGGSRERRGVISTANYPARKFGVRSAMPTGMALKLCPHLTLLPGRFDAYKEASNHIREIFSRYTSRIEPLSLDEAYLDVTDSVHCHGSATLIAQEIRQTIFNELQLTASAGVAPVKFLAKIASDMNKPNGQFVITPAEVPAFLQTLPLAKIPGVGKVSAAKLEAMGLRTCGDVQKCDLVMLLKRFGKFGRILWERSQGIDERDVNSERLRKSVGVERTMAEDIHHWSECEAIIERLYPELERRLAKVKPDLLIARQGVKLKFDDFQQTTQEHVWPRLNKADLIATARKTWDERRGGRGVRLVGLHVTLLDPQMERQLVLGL

B1: 18mer dsDNA (dsDNA)
DNA 1: TCTAGGGTCCTAGGACCC
DNA 2: GGGTCCTAGGACCCTAGA
Q: Does B1 bind (DinBΔPAD)?
A: Result: binds

Q: Does B1 bind (DinB (DNA polymerase IV))?
A: Result: binds
